Reference: article PMC7296103, “Live Cell Imaging Demonstrates Multiple Routes Toward a STAT1 Gain-of-Function Phenotype” (Frontiers in Immunology, 2020)

How the values were obtained:
[1] = molecular target: T1, STAT1-GFP wild type, P42224; test: raster image correlation spectroscopy (RICS), molecular brightness; living U3A cells after IFNγ (1 U/μl, 1 h), 37°C; cytoplasm; brightness as fold of cytoplasmic STAT1 WT; conditions: remark: other sources report otherwise
T1 chain: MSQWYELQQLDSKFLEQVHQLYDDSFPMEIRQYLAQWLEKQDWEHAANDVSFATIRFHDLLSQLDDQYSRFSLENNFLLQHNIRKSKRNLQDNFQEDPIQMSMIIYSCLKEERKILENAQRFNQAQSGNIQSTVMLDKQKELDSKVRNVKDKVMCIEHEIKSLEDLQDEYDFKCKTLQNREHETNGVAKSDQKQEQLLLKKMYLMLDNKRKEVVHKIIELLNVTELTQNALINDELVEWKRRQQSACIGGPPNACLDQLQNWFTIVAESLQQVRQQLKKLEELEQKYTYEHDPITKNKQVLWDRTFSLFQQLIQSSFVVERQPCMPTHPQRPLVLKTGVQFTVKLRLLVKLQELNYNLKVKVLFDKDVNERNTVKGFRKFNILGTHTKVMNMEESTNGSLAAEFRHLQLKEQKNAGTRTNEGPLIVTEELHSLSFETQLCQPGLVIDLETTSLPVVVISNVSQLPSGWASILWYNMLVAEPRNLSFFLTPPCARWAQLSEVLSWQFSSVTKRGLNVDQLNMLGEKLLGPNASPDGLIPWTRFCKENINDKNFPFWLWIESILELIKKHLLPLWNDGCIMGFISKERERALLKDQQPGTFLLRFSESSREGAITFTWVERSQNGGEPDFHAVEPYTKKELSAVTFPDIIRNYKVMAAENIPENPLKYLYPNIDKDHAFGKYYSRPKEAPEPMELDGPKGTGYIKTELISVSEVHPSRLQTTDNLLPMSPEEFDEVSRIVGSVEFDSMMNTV

[2] = molecular target: T1, STAT1-GFP wild type, P42224; test: raster image correlation spectroscopy (RICS), molecular brightness; living U3A cells, unstimulated, 37°C; cytoplasm and nucleus; brightness of STAT1-GFP compared with monomeric GFP; conditions: remark: other sources report otherwise
[3] = molecular target: T1, STAT1-GFP wild type, P42224; test: raster image correlation spectroscopy (RICS), molecular brightness; living U3A cells after IFNγ (1 U/μl, 1 h), 37°C; nucleus; brightness as fold of cytoplasmic STAT1 WT; dimers to tetramers; conditions: remark: other sources report otherwise
[4] = molecular target: the molecule itself; test: raster image correlation spectroscopy (RICS), molecular brightness; living U3A cells after IFNγ (1 U/μl, 1 h), 37°C; cytoplasm; brightness as fold of cytoplasmic STAT1 WT
[5] = molecular target: the molecule itself; test: raster image correlation spectroscopy (RICS), molecular brightness; living U3A cells after IFNγ (1 U/μl, 1 h), 37°C; nucleus; brightness as fold of cytoplasmic STAT1 WT; dimers to tetramers

| Binder | relative brightness (fold of cytoplasmic STAT1 WT) [4] | increase of nuclear brightness compared to cytoplasmic STAT1 WT [5] | stoichiometry N [5] | other results |
| --- | --- | --- | --- | --- |
| STAT1-GFP wild type, P42224 1-750 (natural protein) MSQWYELQQLDSKFLEQVHQLYDDSFPMEIRQYLAQWLEKQDWEHAANDVSFATIRFHDLLSQLDDQYSRFSLENNFLLQHNIRKSKRNLQDNFQEDPIQMSMIIYSCLKEERKILENAQRFNQAQSGNIQSTVMLDKQKELDSKVRNVKDKVMCIEHEIKSLEDLQDEYDFKCKTLQNREHETNGVAKSDQKQEQLLLKKMYLMLDNKRKEVVHKIIELLNVTELTQNALINDELVEWKRRQQSACIGGPPNACLDQLQNWFTIVAESLQQVRQQLKKLEELEQKYTYEHDPITKNKQVLWDRTFSLFQQLIQSSFVVERQPCMPTHPQRPLVLKTGVQFTVKLRLLVKLQELNYNLKVKVLFDKDVNERNTVKGFRKFNILGTHTKVMNMEESTNGSLAAEFRHLQLKEQKNAGTRTNEGPLIVTEELHSLSFETQLCQPGLVIDLETTSLPVVVISNVSQLPSGWASILWYNMLVAEPRNLSFFLTPPCARWAQLSEVLSWQFSSVTKRGLNVDQLNMLGEKLLGPNASPDGLIPWTRFCKENINDKNFPFWLWIESILELIKKHLLPLWNDGCIMGFISKERERALLKDQQPGTFLLRFSESSREGAITFTWVERSQNGGEPDFHAVEPYTKKELSAVTFPDIIRNYKVMAAENIPENPLKYLYPNIDKDHAFGKYYSRPKEAPEPMELDGPKGTGYIKTELISVSEVHPSRLQTTDNLLPMSPEEFDEVSRIVGSVEFDSMMNTV | – | – | – | relative brightness (fold of cytoplasmic STAT1 WT) [1]: 1 A.U.; stoichiometry N [2]: 2; relative brightness (fold of cytoplasmic STAT1 WT) [3]: 1.32 A.U.; stoichiometry N [3]: 4 |
| STAT1-GFP N574I (natural protein, UniProt P42224 1-750, looked up, STAT1 with the patient gain-of-function mutation N574I (linker domain); Mutation reported in patients; also called STAT1N574I-eGFP; N571I (as printed in some places); source: measured in living cells; not shown: eGFP, C-terminal, kept) MSQWYELQQLDSKFLEQVHQLYDDSFPMEIRQYLAQWLEKQDWEHAANDVSFATIRFHDLLSQLDDQYSRFSLENNFLLQHNIRKSKRNLQDNFQEDPIQMSMIIYSCLKEERKILENAQRFNQAQSGNIQSTVMLDKQKELDSKVRNVKDKVMCIEHEIKSLEDLQDEYDFKCKTLQNREHETNGVAKSDQKQEQLLLKKMYLMLDNKRKEVVHKIIELLNVTELTQNALINDELVEWKRRQQSACIGGPPNACLDQLQNWFTIVAESLQQVRQQLKKLEELEQKYTYEHDPITKNKQVLWDRTFSLFQQLIQSSFVVERQPCMPTHPQRPLVLKTGVQFTVKLRLLVKLQELNYNLKVKVLFDKDVNERNTVKGFRKFNILGTHTKVMNMEESTNGSLAAEFRHLQLKEQKNAGTRTNEGPLIVTEELHSLSFETQLCQPGLVIDLETTSLPVVVISNVSQLPSGWASILWYNMLVAEPRNLSFFLTPPCARWAQLSEVLSWQFSSVTKRGLNVDQLNMLGEKLLGPNASPDGLIPWTRFCKENINDKNFPFWLWIESILELIKKHLLPLWIDGCIMGFISKERERALLKDQQPGTFLLRFSESSREGAITFTWVERSQNGGEPDFHAVEPYTKKELSAVTFPDIIRNYKVMAAENIPENPLKYLYPNIDKDHAFGKYYSRPKEAPEPMELDGPKGTGYIKTELISVSEVHPSRLQTTDNLLPMSPEEFDEVSRIVGSVEFDSMMNTV | 0.74 A.U. | 7% | 4 | – |
| STAT1-GFP R274W (natural protein, UniProt P42224 1-750, looked up, STAT1 with the patient gain-of-function mutation R274W (coiled-coil domain); Mutation reported in patients; also called STAT1R274W-eGFP; source: measured in living cells; not shown: eGFP, C-terminal, kept) MSQWYELQQLDSKFLEQVHQLYDDSFPMEIRQYLAQWLEKQDWEHAANDVSFATIRFHDLLSQLDDQYSRFSLENNFLLQHNIRKSKRNLQDNFQEDPIQMSMIIYSCLKEERKILENAQRFNQAQSGNIQSTVMLDKQKELDSKVRNVKDKVMCIEHEIKSLEDLQDEYDFKCKTLQNREHETNGVAKSDQKQEQLLLKKMYLMLDNKRKEVVHKIIELLNVTELTQNALINDELVEWKRRQQSACIGGPPNACLDQLQNWFTIVAESLQQVWQQLKKLEELEQKYTYEHDPITKNKQVLWDRTFSLFQQLIQSSFVVERQPCMPTHPQRPLVLKTGVQFTVKLRLLVKLQELNYNLKVKVLFDKDVNERNTVKGFRKFNILGTHTKVMNMEESTNGSLAAEFRHLQLKEQKNAGTRTNEGPLIVTEELHSLSFETQLCQPGLVIDLETTSLPVVVISNVSQLPSGWASILWYNMLVAEPRNLSFFLTPPCARWAQLSEVLSWQFSSVTKRGLNVDQLNMLGEKLLGPNASPDGLIPWTRFCKENINDKNFPFWLWIESILELIKKHLLPLWNDGCIMGFISKERERALLKDQQPGTFLLRFSESSREGAITFTWVERSQNGGEPDFHAVEPYTKKELSAVTFPDIIRNYKVMAAENIPENPLKYLYPNIDKDHAFGKYYSRPKEAPEPMELDGPKGTGYIKTELISVSEVHPSRLQTTDNLLPMSPEEFDEVSRIVGSVEFDSMMNTV | – | 17% | 4 | – |
| STAT1-GFP E411A (natural protein, UniProt P42224 1-750, looked up, Artificial mutation, not reported in patients; also called STAT1E411A-eGFP; source: measured in living cells; not shown: eGFP, C-terminal, kept) MSQWYELQQLDSKFLEQVHQLYDDSFPMEIRQYLAQWLEKQDWEHAANDVSFATIRFHDLLSQLDDQYSRFSLENNFLLQHNIRKSKRNLQDNFQEDPIQMSMIIYSCLKEERKILENAQRFNQAQSGNIQSTVMLDKQKELDSKVRNVKDKVMCIEHEIKSLEDLQDEYDFKCKTLQNREHETNGVAKSDQKQEQLLLKKMYLMLDNKRKEVVHKIIELLNVTELTQNALINDELVEWKRRQQSACIGGPPNACLDQLQNWFTIVAESLQQVRQQLKKLEELEQKYTYEHDPITKNKQVLWDRTFSLFQQLIQSSFVVERQPCMPTHPQRPLVLKTGVQFTVKLRLLVKLQELNYNLKVKVLFDKDVNERNTVKGFRKFNILGTHTKVMNMEESTNGSLAAEFRHLQLKAQKNAGTRTNEGPLIVTEELHSLSFETQLCQPGLVIDLETTSLPVVVISNVSQLPSGWASILWYNMLVAEPRNLSFFLTPPCARWAQLSEVLSWQFSSVTKRGLNVDQLNMLGEKLLGPNASPDGLIPWTRFCKENINDKNFPFWLWIESILELIKKHLLPLWNDGCIMGFISKERERALLKDQQPGTFLLRFSESSREGAITFTWVERSQNGGEPDFHAVEPYTKKELSAVTFPDIIRNYKVMAAENIPENPLKYLYPNIDKDHAFGKYYSRPKEAPEPMELDGPKGTGYIKTELISVSEVHPSRLQTTDNLLPMSPEEFDEVSRIVGSVEFDSMMNTV | – | – | 2 | – |
| STAT1-GFP Y701A (natural protein, UniProt P42224 1-750, looked up, Non-clinical control; also called STAT1Y701A-eGFP; source: measured in living cells; not shown: eGFP, C-terminal, kept) MSQWYELQQLDSKFLEQVHQLYDDSFPMEIRQYLAQWLEKQDWEHAANDVSFATIRFHDLLSQLDDQYSRFSLENNFLLQHNIRKSKRNLQDNFQEDPIQMSMIIYSCLKEERKILENAQRFNQAQSGNIQSTVMLDKQKELDSKVRNVKDKVMCIEHEIKSLEDLQDEYDFKCKTLQNREHETNGVAKSDQKQEQLLLKKMYLMLDNKRKEVVHKIIELLNVTELTQNALINDELVEWKRRQQSACIGGPPNACLDQLQNWFTIVAESLQQVRQQLKKLEELEQKYTYEHDPITKNKQVLWDRTFSLFQQLIQSSFVVERQPCMPTHPQRPLVLKTGVQFTVKLRLLVKLQELNYNLKVKVLFDKDVNERNTVKGFRKFNILGTHTKVMNMEESTNGSLAAEFRHLQLKEQKNAGTRTNEGPLIVTEELHSLSFETQLCQPGLVIDLETTSLPVVVISNVSQLPSGWASILWYNMLVAEPRNLSFFLTPPCARWAQLSEVLSWQFSSVTKRGLNVDQLNMLGEKLLGPNASPDGLIPWTRFCKENINDKNFPFWLWIESILELIKKHLLPLWNDGCIMGFISKERERALLKDQQPGTFLLRFSESSREGAITFTWVERSQNGGEPDFHAVEPYTKKELSAVTFPDIIRNYKVMAAENIPENPLKYLYPNIDKDHAFGKYYSRPKEAPEPMELDGPKGTGAIKTELISVSEVHPSRLQTTDNLLPMSPEEFDEVSRIVGSVEFDSMMNTV | – | – | 2 | – |
| STAT1-GFP R321S (natural protein, UniProt P42224 1-750, looked up, Mutation reported in patients; also called STAT1R321S-eGFP; source: measured in living cells; not shown: eGFP, C-terminal, kept) MSQWYELQQLDSKFLEQVHQLYDDSFPMEIRQYLAQWLEKQDWEHAANDVSFATIRFHDLLSQLDDQYSRFSLENNFLLQHNIRKSKRNLQDNFQEDPIQMSMIIYSCLKEERKILENAQRFNQAQSGNIQSTVMLDKQKELDSKVRNVKDKVMCIEHEIKSLEDLQDEYDFKCKTLQNREHETNGVAKSDQKQEQLLLKKMYLMLDNKRKEVVHKIIELLNVTELTQNALINDELVEWKRRQQSACIGGPPNACLDQLQNWFTIVAESLQQVRQQLKKLEELEQKYTYEHDPITKNKQVLWDRTFSLFQQLIQSSFVVESQPCMPTHPQRPLVLKTGVQFTVKLRLLVKLQELNYNLKVKVLFDKDVNERNTVKGFRKFNILGTHTKVMNMEESTNGSLAAEFRHLQLKEQKNAGTRTNEGPLIVTEELHSLSFETQLCQPGLVIDLETTSLPVVVISNVSQLPSGWASILWYNMLVAEPRNLSFFLTPPCARWAQLSEVLSWQFSSVTKRGLNVDQLNMLGEKLLGPNASPDGLIPWTRFCKENINDKNFPFWLWIESILELIKKHLLPLWNDGCIMGFISKERERALLKDQQPGTFLLRFSESSREGAITFTWVERSQNGGEPDFHAVEPYTKKELSAVTFPDIIRNYKVMAAENIPENPLKYLYPNIDKDHAFGKYYSRPKEAPEPMELDGPKGTGYIKTELISVSEVHPSRLQTTDNLLPMSPEEFDEVSRIVGSVEFDSMMNTV | 0.69 A.U. | 11% | 4 | – |
